Data on five molecules can be found in publication PMC11880201.

For one data set, the target named is TEAD1-TEAD R80A (UniProt P28347 28-104, R80A). In words: EMSA.
The next data set deals with TEAD1-TEAD L79A (UniProt P28347 28-104, L79A). In words: EMSA. On the technique in general: A gel shift assay detects complexes by their altered migration in electrophoresis.
For another data set, the target named is TEAD1-TEAD R75A (UniProt P28347 28-104, R75A). In words: EMSA.
In data set [1] the target is T1, INSM1 ZF1-ZF5 (human, UniProt Q01101 257-497). Briefly: EMSA.
The next data set concerns the target TEAD1-TEAD (UniProt P28347 28-104). In words: EMSA.
In data set [2] the target is T2, INSM1 ZF1;TEAD1-TEAD (human;human?, UniProt Q01101;P28347 257-292;28-104, |). Briefly: EMSA.
For the next data set, the target named is T3, CTCF ZF3-ZF7 (human, UniProt P49711 317-467).
T3 sequence: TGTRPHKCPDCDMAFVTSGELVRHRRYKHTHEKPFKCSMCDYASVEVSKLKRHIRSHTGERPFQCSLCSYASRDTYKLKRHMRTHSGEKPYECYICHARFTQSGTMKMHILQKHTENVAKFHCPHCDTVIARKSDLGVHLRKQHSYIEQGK
Briefly: EMSA.

Data set [3] deals with T1, INSM1 ZF1-ZF5. In words: EMSA. The source holds these as a separate data set.
The target of data set [4] is T2, INSM1 ZF1;TEAD1-TEAD. In words: AUC.
The next data set concerns the target INSM1 ZF3 (human, UniProt Q01101 346-396). Briefly: NMR titration.
Data set [5] concerns the target T1, INSM1 ZF1-ZF5. Briefly: NMR titration.

Where two headings read alike, the source gives them in different places.

T1 sequence (Q01101 257-497): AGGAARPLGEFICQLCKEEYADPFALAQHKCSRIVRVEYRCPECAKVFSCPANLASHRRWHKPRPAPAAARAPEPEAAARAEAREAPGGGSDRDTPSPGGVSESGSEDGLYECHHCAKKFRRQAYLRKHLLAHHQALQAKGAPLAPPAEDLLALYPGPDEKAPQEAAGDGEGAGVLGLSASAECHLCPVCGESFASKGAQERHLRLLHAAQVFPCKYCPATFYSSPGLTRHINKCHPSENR
T2 sequence (Q01101 257-292, chain 1 of 2): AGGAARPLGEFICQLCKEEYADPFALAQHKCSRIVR
T2 sequence (P28347 28-104, chain 2 of 2): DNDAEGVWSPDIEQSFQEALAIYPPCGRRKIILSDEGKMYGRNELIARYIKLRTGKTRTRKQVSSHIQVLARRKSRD
Sequence of TEAD1-TEAD R80A (P28347 28-104 R80A): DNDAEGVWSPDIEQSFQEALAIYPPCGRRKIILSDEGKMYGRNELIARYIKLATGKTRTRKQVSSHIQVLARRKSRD
Sequence of TEAD1-TEAD (P28347 28-104): as the sequence (P28347 28-104, chain 2 of 2) above
Sequence of TEAD1-TEAD L79A (P28347 28-104 L79A): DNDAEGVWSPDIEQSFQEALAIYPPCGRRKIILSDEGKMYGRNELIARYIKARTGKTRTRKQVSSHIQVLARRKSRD
Sequence of TEAD1-TEAD R75A (P28347 28-104 R75A): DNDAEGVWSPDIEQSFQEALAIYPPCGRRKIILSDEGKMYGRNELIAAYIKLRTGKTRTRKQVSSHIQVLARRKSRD
Sequence of INSM1 ZF3 (Q01101 346-396): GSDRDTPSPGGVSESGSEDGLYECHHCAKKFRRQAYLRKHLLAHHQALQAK

B1: MCAT (FAM) (dsDNA)
DNA 1: AGTGGAATGTGC
DNA 2: GCACATTCCACT
On to B1, for which the binding result with TEAD1-TEAD R80A, with TEAD1-TEAD L79A, with TEAD1-TEAD R75A and with INSM1 ZF1;TEAD1-TEAD [2] was “binds” each time. Moreover, the Kd with INSM1 ZF1-ZF5 [1] is 8.24 µM; in the data set with TEAD1-TEAD, ~0.09 µM.

B2: M2 (FAM) (dsDNA)
DNA 1: TACCACCAGGGGGCAGT
DNA 2: ACTGCCCCCTGGTGGTA
B2 had a dissociation constant Kd in the data set with CTCF ZF3-ZF7 of 0.0984 µM. This lies in the double-digit nanomolar range.

B3: M1 (dsDNA)
DNA 1: TGTCAGGGGGCA
DNA 2: TGCCCCCTGACA
As for B3, in the data set with INSM1 ZF1-ZF5 [3], the dissociation constant (Kd) was found to be 6 µM.

B4: MCAT (unlabeled) (dsDNA)
DNA 1: AGTGGAATGTGC
DNA 2: GCACATTCCACT
B4: the binding result with INSM1 ZF1;TEAD1-TEAD [4] was “binds”.

B5: M2 (unlabeled) (dsDNA)
DNA 1: TACCACCAGGGGGCAGT
DNA 2: ACTGCCCCCTGGTGGTA
With B5, the binding result with INSM1 ZF3 and with INSM1 ZF1-ZF5 [5] was “binds” in each case.

By Kd is commonly meant the concentration at which binding is half-saturated. A higher Kd goes with weaker binding.
